Measurements from patent publication US12059429B2, “Hornerin: a novel non-VEGF mediated angiogenic protein expressed in both human and mouse angiogenic endothelial cells and human pancreatic cancer cells” (University of Virginia Patent Foundation, priority 2018, dated 2024).

Test system: hornerin
Experiment: Immunoblot of hornerin in HUVECs treated with growth factors
Type: cell-based, human
Conditions: 24 hours treatment; growth factors at published B-max concentrations, EGF at increasing concentrations
Protocol: HUVECs were cultured in 10 cm dishes for 24 hours prior to a change to media containing VEGF (at B-max concentration), TCM, or VC. After 24 hours treatment, the cells were washed with DPBST two times and lysed with radioimmunoprecipitation assay (RIPA) buffer (Thermo Scientific). Lysate protein concentrations were measured by the bicinchoninic acid assay (Pierce, Waltham, MA, USA) and equivalent amounts of protein were loaded into precast 4-15% tris-glycine eXtended (TGX) polyacrylamide gels (Bio-Rad, Hercules, CA, USA). The proteins were resolved by electrophoresis and transferred to nitrocellulose membranes using the iBlot system (Invitrogen, Carlsbad, CA, USA). The membranes were then washed in Tris-buffered saline+1% Tween-20 (TBST), blocked for 30 minutes in TBST+2% milk solution, and incubated overnight at 4° C. with primary antibodies anti-hornerin (Abcam, Cambridge, UK, ab78909; (1:1000)) and anti-HSP90 (Cell Signaling Technology, Danvers, MA, USA, 4877; (1:1000)). The following day the membranes were washed and subsequently incubated with the secondary antibodies anti-goat HRP (R&D Systems, Minneapolis, MN, USA, HAF109; 1:5000) and anti-rabbit HRP (GE Healthcare, NA934V; 1:5000) for 45 minutes at RT. […]
Major constituents of TCM were determined using a Human Angiogenesis Antibody Array (Affymetrix, Santa Clara, CA, USA) per manufacturer's instructions. […]

B1: IL-12: growth factor found in TCM, added to HUVECs at published B-max concentration (protein, UniProt P29459 23-219; P29460 23-328, looked up)
Interleukin-12 subunit alpha: RNLPVATPDPGMFPCLHHSQNLLRAVSNMLQKARQTLEFYPCTSEEIDHEDITKDKTSTVEACLPLELTKNESCLNSRETSFITNGSCLASRKTSFMMALCLSSIYEDLKMYQVEFKTMNAKLLMDPKRQIFLDQNMLAVIDELMQALNFNSETVPQKSSLEEPDFYKTKIKLCILLHAFRIRAVTIDRVMSYLNAS
Interleukin-12 subunit beta: IWELKKDVYVVELDWYPDAPGEMVVLTCDTPEEDGITWTLDQSSEVLGSGKTLTIQVKEFGDAGQYTCHKGGEVLSHSLLLLHKKEDGIWSTDILKDQKEPKNKTFLRCEAKNYSGRFTCWWLTTISTDLTFSVKSSRGSSDPQGVTCGAATLSAERVRGDNKEYEYSVECQEDSACPAAEESLPIEVMVDAVHKLKYENYTSSFFIRDIIKPDPPKNLQLKPLKNSRQVEVSWEYPDTWSTPHSYFSLTFCVQVQGKSKREKKDRVFTDKTSATVICRKNASISVRAQDRYYSSSWSEWASVPCS
For B1, the “hornerin expression in HUVECs” value was “might stimulate hornerin expression”.
